Test results: EP4768505A1 (Shenzhen Genocury Biotech Co., Ltd, dated 2026)

Columns and labels:
BSA [1] = target: BSA (UniProt P02769); experiment: ELISA on coated BSA control, anti-myc detection; 2ng antibody added
[2] = target: Human CD79A+CD79B antigen (human) (UniProt P11912); experiment: ELISA on coated antigen, anti-myc detection; 2ng antibody added
[3] = target: T1, Mouse CD79A+CD79B antigen (mouse) (UniProt P11911); experiment: as above
T1 sequence (looked up) 1: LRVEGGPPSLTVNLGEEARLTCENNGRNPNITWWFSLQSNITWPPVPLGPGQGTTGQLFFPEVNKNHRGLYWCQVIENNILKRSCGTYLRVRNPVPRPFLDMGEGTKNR
T1 sequence (looked up) 2: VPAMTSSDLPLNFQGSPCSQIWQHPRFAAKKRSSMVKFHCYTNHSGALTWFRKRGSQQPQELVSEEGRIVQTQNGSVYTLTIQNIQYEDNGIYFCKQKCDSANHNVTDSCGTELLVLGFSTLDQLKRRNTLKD

[4] = target: Human CD79B Protein, His Tag (MALS verified), Cat. No. #CDB-H52H3-1mg, ACRO (human) (UniProt P40259); experiment: as above
[5] = target: Human CD79A+CD79B antigen (human) (UniProt P11912); experiment: ELISA on coated antigen, anti-myc detection; 20ug antibody added
[6] = target: T1, Mouse CD79A+CD79B antigen (mouse); experiment: as above
[7] = target: Human CD79B Protein, His Tag (MALS verified), Cat. No. #CDB-H52H3-1mg, ACRO (human) (UniProt P40259); experiment: as above
BSA [8] = target: BSA (UniProt P02769); experiment: ELISA on coated BSA control, anti-myc detection; 2ug antibody added
[9] = target: Human CD79A+CD79B antigen (human) (UniProt P11912); experiment: ELISA on coated antigen, anti-myc detection; 20ng antibody added
[10] = target: T1, Mouse CD79A+CD79B antigen (mouse); experiment: as above
[11] = target: Human CD79B Protein, His Tag (MALS verified), Cat. No. #CDB-H52H3-1mg, ACRO (human) (UniProt P40259); experiment: as above
[12] = target: T2, human CD79B antigen (a full-length protein containing signal peptide, UniProt ID: P40259) on cells (human, UniProt P40259 29-229); experiment: flow cytometry on HEK-293T cells overexpressing CD79B-GFP, 0.1 mg/mL, APC-His tag antibody
T2 construct: whole, on cells; Used for the flow cytometry on transfected HEK-293T cells; F2A residues left at the C-terminus after cleavage are not described; also called CD79B-GFP molecule; HEK-293T cells overexpressing the CD79B-GFP molecule
T2 sequence (looked up): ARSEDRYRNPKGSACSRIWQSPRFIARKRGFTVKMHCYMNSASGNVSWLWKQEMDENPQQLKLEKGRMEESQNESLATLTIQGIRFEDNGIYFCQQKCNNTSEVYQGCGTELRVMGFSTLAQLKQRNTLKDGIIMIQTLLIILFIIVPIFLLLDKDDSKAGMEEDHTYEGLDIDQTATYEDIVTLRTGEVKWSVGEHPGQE

[13] = target: Human CD79A+CD79B antigen (human) (UniProt P11912); experiment: ELISA on coated antigen, anti-myc detection; 200µg [sic] antibody added (lowest step of the dilution series)
[14] = target: T1, Mouse CD79A+CD79B antigen (mouse); experiment: as above
[15] = target: Human CD79B Protein, His Tag (MALS verified), Cat. No. #CDB-H52H3-1mg, ACRO (human) (UniProt P40259); experiment: as above
Mouse CD79B antigen [16] = target: T3, Mouse CD79B antigen (mouse, UniProt P15530 26-158, limits assumed); experiment: ELISA on coated antigen, anti-myc detection
T3 sequence (looked up): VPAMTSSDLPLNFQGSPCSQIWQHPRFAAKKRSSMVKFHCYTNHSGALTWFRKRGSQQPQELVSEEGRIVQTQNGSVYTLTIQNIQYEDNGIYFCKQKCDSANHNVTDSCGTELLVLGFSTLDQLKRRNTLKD

BSA [17] = target: BSA (UniProt P02769); experiment: ELISA on coated BSA control, anti-myc detection; 200µg [sic] antibody added (lowest step of the dilution series)
[18] = target: Human CD79A+CD79B antigen (human) (UniProt P11912); experiment: ELISA on coated antigen, anti-myc detection; 200ng antibody added
[19] = target: T1, Mouse CD79A+CD79B antigen (mouse); experiment: as above
[20] = target: Human CD79B Protein, His Tag (MALS verified), Cat. No. #CDB-H52H3-1mg, ACRO (human) (UniProt P40259); experiment: as above
[21] = target: Human CD79A+CD79B antigen (human) (UniProt P11912); experiment: ELISA on coated antigen, anti-myc detection; 2ug antibody added
[22] = target: T1, Mouse CD79A+CD79B antigen (mouse); experiment: as above
[23] = target: Human CD79B Protein, His Tag (MALS verified), Cat. No. #CDB-H52H3-1mg, ACRO (human) (UniProt P40259); experiment: as above
BSA [24] = target: BSA (UniProt P02769); experiment: ELISA on coated BSA control, anti-myc detection; 20ug antibody added
BSA [25] = target: BSA (UniProt P02769); experiment: ELISA on coated BSA control, anti-myc detection; 20ng antibody added
BSA [26] = target: BSA (UniProt P02769); experiment: ELISA on coated BSA control, anti-myc detection; 200ng antibody added
Mouse CD79B antigen [27] = target: T3, Mouse CD79B antigen; experiment: ELISA on coated antigen, anti-myc detection; 2ng antibody added
Mouse CD79B antigen [28] = target: T3, Mouse CD79B antigen; experiment: ELISA on coated antigen, anti-myc detection; 200pg antibody added
[29] = target: Human CD79A+CD79B antigen (human) (UniProt P11912); experiment: as above
[30] = target: T1, Mouse CD79A+CD79B antigen (mouse); experiment: as above
[31] = target: Human CD79B Protein, His Tag (MALS verified), Cat. No. #CDB-H52H3-1mg, ACRO (human) (UniProt P40259); experiment: as above
Mouse CD79B antigen [32] = target: T3, Mouse CD79B antigen; experiment: ELISA on coated antigen, anti-myc detection; 20ug antibody added
BSA [33] = target: BSA (UniProt P02769); experiment: ELISA on coated BSA control, anti-myc detection; 200pg antibody added
Mouse CD79B antigen [34] = target: T3, Mouse CD79B antigen; experiment: ELISA on coated antigen, anti-myc detection; 20ng antibody added
Mouse CD79B antigen [35] = target: T3, Mouse CD79B antigen; experiment: ELISA on coated antigen, anti-myc detection; 200ng antibody added
Mouse CD79B antigen [36] = target: T3, Mouse CD79B antigen; experiment: ELISA on coated antigen, anti-myc detection; 2ug antibody added

Sequence of BSA (P02769 25-607 limits assumed): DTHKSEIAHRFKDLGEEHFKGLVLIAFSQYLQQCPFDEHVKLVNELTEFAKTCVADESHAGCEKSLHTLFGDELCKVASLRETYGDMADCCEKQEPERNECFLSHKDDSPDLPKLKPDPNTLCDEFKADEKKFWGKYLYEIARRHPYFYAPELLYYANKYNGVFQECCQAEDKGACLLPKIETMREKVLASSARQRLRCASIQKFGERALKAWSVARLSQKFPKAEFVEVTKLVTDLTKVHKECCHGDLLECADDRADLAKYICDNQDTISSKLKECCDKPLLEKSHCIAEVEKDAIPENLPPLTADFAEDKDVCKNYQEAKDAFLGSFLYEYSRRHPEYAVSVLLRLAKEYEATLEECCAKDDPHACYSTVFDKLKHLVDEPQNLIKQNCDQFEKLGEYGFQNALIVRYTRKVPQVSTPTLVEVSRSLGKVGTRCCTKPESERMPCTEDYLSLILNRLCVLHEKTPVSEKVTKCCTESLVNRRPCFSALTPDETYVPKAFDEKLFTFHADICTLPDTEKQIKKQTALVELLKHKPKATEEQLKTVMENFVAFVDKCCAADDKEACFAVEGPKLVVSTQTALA

| Binder | OD450 nm (BSA [1]) [OD450] | OD450 nm [2] [OD450] | OD450 nm [3] [OD450] | OD450 nm [4] [OD450] | OD450 nm [5] [OD450] | OD450 nm [6] [OD450] | OD450 nm [7] [OD450] | OD450 nm (BSA [8]) [OD450] | OD450 nm [9] [OD450] | OD450 nm [10] [OD450] | OD450 nm [11] [OD450] | binding result [12] | OD450 nm [18] [OD450] | OD450 nm [19] [OD450] | OD450 nm [20] [OD450] | OD450 nm [21] [OD450] | OD450 nm [22] [OD450] | OD450 nm [23] [OD450] | OD450 nm (BSA [24]) [OD450] | OD450 nm (BSA [25]) [OD450] | other results |
| --- | --- | --- | --- | --- | --- | --- | --- | --- | --- | --- | --- | --- | --- | --- | --- | --- | --- | --- | --- | --- | --- |
| anti-CD79B single-domain antibody JYB11 (VHH, Alpaca VHH from a phage library; ELISA detected with an anti-myc antibody; a myc tag is not described; not shown: His-tag protein at the C-terminal end) VHH: DVQLQESGGGLVQPGGSLSLSCAASMSSPSLWVRAWHRQAPGKQRELVAAINSDGQTMYADSVKGRFTISRDNAKTLVSLQMDSLKPEDTAVYYCNVVTPRGQQYWGQGTQVTVSS | 0.0485 | 0.0567 | 0.0582 | 0.0528 | 0.612 | 0.0981 | 0.379 | 0.0483 | 0.0778 | 0.0575 | 0.0947 | binds | 0.271 | 0.0589 | 0.177 | 0.519 | 0.0651 | 0.303 | 0.0489 | 0.0471 | OD450 nm [13]: 0.0556 OD450; OD450 nm [14]: 0.0586 OD450; OD450 nm [15]: 0.0516 OD450; binding result (Mouse CD79B antigen [16]): no binding (tested: 20ug); OD450 nm (BSA [17]): 0.0469 OD450; OD450 nm (BSA [26]): 0.048 OD450 |
| anti-CD79B single-domain antibody JYB10 (VHH, Alpaca VHH from a phage library; ELISA detected with an anti-myc antibody; a myc tag is not described; not shown: His-tag protein at the C-terminal end) VHH: DVQLQESGGGLVQPGGSLSLSCAASISSSSIWVRAWHRQAPGKQRELVAAINNDGQTMYADSVKGRFTISRDNAKTTVSLQMNSLKPEDTAVYYCNVVTPKGHQYWGQGTQVTVSS | 0.0486 | 0.0596 | 0.0584 | 0.0517 | 0.816 | 0.126 | 0.285 | 0.0482 | 0.0687 | 0.0609 | 0.0739 | binds | 0.224 | 0.0601 | 0.144 | 0.554 | 0.0788 | 0.221 | 0.0493 | 0.0474 | OD450 nm (Mouse CD79B antigen [27]): 0.0512 OD450; OD450 nm (Mouse CD79B antigen [28]): 0.0517 OD450; OD450 nm [29]: 0.0573 OD450; OD450 nm [30]: 0.0584 OD450; OD450 nm [31]: 0.0496 OD450; OD450 nm (Mouse CD79B antigen [32]): 0.0982 OD450; OD450 nm (BSA [33]): 0.0488 OD450; OD450 nm (Mouse CD79B antigen [34]): 0.0517 OD450; OD450 nm (Mouse CD79B antigen [35]): 0.0527 OD450; OD450 nm (Mouse CD79B antigen [36]): 0.0588 OD450; OD450 nm (BSA [26]): 0.0473 OD450 |
| anti-CD79B single-domain antibody JYB4 (VHH, Alpaca VHH from a phage library; not shown: His-tag protein at the C-terminal end) VHH: DVQLQESGGGLVQPGGSLRLSCAASGFAFSLYAMSWARQAPGKGLEWVSDIYGDDDSRRNYADSVKGRFTISRDNAKNTVYLQMTNLQPEDTALYYCGKGRDGTRWSAREYEYRGQGTQVTVSS | 0.0479 | 0.063 | 0.0574 | 0.0519 | 0.658 | 0.049 | 0.552 | 0.0479 | 0.172 | 0.0572 | 0.15 | binds | 0.421 | 0.0567 | 0.375 | 0.585 | 0.0549 | 0.485 | 0.0488 | 0.0499 | OD450 nm [29]: 0.0577 OD450; OD450 nm [30]: 0.0601 OD450; OD450 nm [31]: 0.0521 OD450; OD450 nm (BSA [33]): 0.0476 OD450; binding result (Mouse CD79B antigen [16]): no binding (tested: 20ug); OD450 nm (BSA [26]): 0.049 OD450 |
